Results taken from publication PMC11313003.

Key:
[1] = target: soluble trimeric-RBD form of the SARS-CoV-2 S protein (RBD aa 330-532, Wuhan strain, with a foldon t (SARS-CoV-2 (ancestral Wuhan strain) | T4 (as in 'T4 fibritin')) (UniProt P0DTC2)); test: Western blot under non-reducing conditions
[2] = target: soluble trimeric-RBD form of the SARS-CoV-2 S protein (RBD aa 330-532, Wuhan strain, with a foldon t (SARS-CoV-2 (ancestral Wuhan strain) | T4 (as in 'T4 fibritin')) (UniProt P0DTC2)); test: SEC

soluble trimeric-RBD form of the SARS-CoV-2 S protein (RBD aa 330-532, Wuhan strain, with a foldon t (from UniProt P0DTC2 330-532) (domain or fragment)
stoichiometry N [1]: 3 | stoichiometry N [2]: 3
